Reference: patent publication US20170165322A1 (CASE WESTERN RESERVE UNIVERSITY, published 2017)

Biological target: T1, Fc control (Fc fusion partner alone) (human, UniProt P01857-1 100-330 = IgG part, limits assumed)
T1 construct: domain: Fc; Control protein, 'prepared as described previously'
Assay: in vivo homing; anti-human Fc immunofluorescence on frozen sections of urethane-induced mouse lung tumors, 2 h after i.p. injection
Procedure: First, we tested if systemically administered ephrin-A1-Fc could home to urethane-induced lung tumors that overexpress EphA2. Lung tumors were induced in wild type mice with urethane. Twenty-five weeks later, mice were injected i.p. with 5 μg/g ephrin-A1-Fc. Fc fusion partner alone was used as control. Two hours after injection, mice were sacrificed, and tumors were dissected out; frozen sections were subject to immunofluorescence staining to detect whether there was a selective homing of ephrin-A1-Fc to tumor tissues relative to control Fc. […] Both FITC-conjugated donkey anti-Fc and Texas-Red-conjugated goat anti-human Fc antibodies yielded similar patterns of selective tumor homing.

B1: EphA2 kinase of mouse (urethane-induced lung tumors, primary keratinocytes, MEF, mouse lung tumor cell lines) (receptor, UniProt Q03145 26-977, looked up)
chain: KEVVLLDFAAMKGELGWLTHPYGKGWDLMQNIMDDMPIYMYSVCNVVSGDQDNWLRTNWVYREEAERIFIELKFTVRDCNSFPGGASSCKETFNLYYAESDVDYGTNFQKRQFTKIDTIAPDEITVSSDFEARNVKLNVEERMVGPLTRKGFYLAFQDIGACVALLSVRVYYKKCPEMLQSLARFPETIAVAVSDTQPLATVAGTCVDHAVVPYGGEGPLMHCTVDGEWLVPIGQCLCQEGYEKVEDACRACSPGFFKSEASESPCLECPEHTLPSTEGATSCQCEEGYFRAPEDPLSMSCTRPPSAPNYLTAIGMGAKVELRWTAPKDTGGRQDIVYSVTCEQCWPESGECGPCEASVRYSEPPHALTRTSVTVSDLEPHMNYTFAVEARNGVSGLVTSRSFRTASVSINQTEPPKVRLEDRSTTSLSVTWSIPVSQQSRVWKYEVTYRKKGDANSYNVRRTEGFSVTLDDLAPDTTYLVQVQALTQEGQGAGSKVHEFQTLSTEGSANMAVIGGVAVGVVLLLVLAGVGLFIHRRRRNLRARQSSEDVRFSKSEQLKPLKTYVDPHTYEDPNQAVLKFTTEIHPSCVARQKVIGAGEFGEVYKGTLKASSGKKEIPVAIKTLKAGYTEKQRVDFLSEASIMGQFSHHNIIRLEGVVSKYKPMMIITEYMENGALDKFLREKDGEFSVLQLVGMLRGIASGMKYLANMNYVHRDLAARNILVNSNLVCKVSDFGLSRVLEDDPEATYTTSGGKIPIRWTAPEAISYRKFTSASDVWSYGIVMWEVMTYGERPYWELSNHEVMKAINDGFRLPTPMDCPSAIYQLMMQCWQQERSRRPKFADIVSILDKLIRAPDSLKTLADFDPRVSIRLPSTSGSEGVPFRTVSEWLESIKMQQYTEHFMVAGYTAIEKVVQMSNEDIKRIGVRLPGHQKRIAYSLLGLKDQVNTVGIPI
notes: whole, on cells
B1: no binding (tested: 2.5 µg/ml Fc control (i.p.)).
